Measurements reported in US20110223176A1 (AbbVie / Abbott, published 2011).

What was measured:
[1] = target: T1, human BSG2 (basigin isoform 2) on the cell surface (human, UniProt P35613 140-385); test: cell-based or functional assay
T1 sequence: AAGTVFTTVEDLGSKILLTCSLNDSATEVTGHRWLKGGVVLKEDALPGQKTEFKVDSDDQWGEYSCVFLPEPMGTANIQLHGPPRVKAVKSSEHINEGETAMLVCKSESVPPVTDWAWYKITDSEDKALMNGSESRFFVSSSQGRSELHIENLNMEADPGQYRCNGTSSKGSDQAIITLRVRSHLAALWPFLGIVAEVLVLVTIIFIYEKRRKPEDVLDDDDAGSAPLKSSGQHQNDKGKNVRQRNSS

[2] = target: T1, human BSG2 (basigin isoform 2) on the …; test: cell-based or functional assay; remark: listed apart in the source
[3] = target: T1, human BSG2 (basigin isoform 2) on the …; test: cell-based ECL (MSD) binding on cells expressing human BSG2
Description: (§1) Cells were plated at 25,000 cells/well in 25 μl PBS using 96 well MSD high binding plates (MSD, catalogue no. L11XB-3), and incubated at 37° C. for 1 hour. 25 μl/well of blocking solution (30% serum in PBS) was added to the plates for 30 minutes at room temperature with mild agitation. Plates were then incubated with 25 μl/well of BSG2 antibodies (10 μg/ml) diluted in assay buffer (10% serum in PBS) for 1 hour at room temperature with mild agitation, and then washed 3× with PBS. Goat anti-mouse or anti-human IgG sulfotag was added at 1 μg/ml for 1 hour with mild agitation, and plates were washed 3× with PBS. After the final wash, plates were incubated with 2×MSD surfactant-free read buffer (catalogue no. R92TD-2) and the signal was detected on a MSD SECTOR Imager 6000. Data were analyzed using Graphpad Prism software and EC₅₀ values were reported.
Select humanized variants were also tested for their functionality using ADCC and cell viability assays (described in Examples 1.6 and 1.7).

[4] = target: T2, cynomolgus monkey BSG2 on the cell surface (cynomolgus monkey); test: flow cytometry (FACS) on BAF3 cells expressing cynomolgus BSG2
T2 construct: whole, on cells; also called BAF3-cyno BSG2; Cyno BSG2
Description: Stable cell lines overexpressing cell-surface BSG2 or human tumor cell lines were harvested from tissue culture flasks, washed three times and resuspended in phosphate buffered saline (PBS) containing 1% bovine serum albumin and 1 mM CaCl₂ (FACS buffer). 5×10⁵ cells were incubated with antibodies at various concentrations in FACS buffer for 60 minutes on ice. Cells were washed twice and the bound murine monoclonal antibody was detected with a goat Fab′2 anti-mouse IgM+IgG+IgA (H+L) R-phycoerythrin-conjugated antibody (Southern Biotechnology Associates, Inc., Birmingham, Ala., Catalog No. 1012-08) diluted 1:500. Following incubation on ice (4° C., 60 minutes), cells were washed three times and resuspended in FACS buffer. Fluorescence was measured using a Becton Dickinson FACSCalibur-HTS (Becton Dickinson, San Jose, Calif., US). Data were analyzed using Graphpad Prism software and EC₅₀ values were reported as the concentration of antibody to achieve 50% of maximal BSG2 antibodies binding to BSG2 expressing cells.

[5] = target: T1, human BSG2 (basigin isoform 2) on the …; test: cell-based ECL (MSD) binding on whole cells expressing human BSG2
[6] = target: T2, cynomolgus monkey BSG2 on the cell …; test: cell-based ECL (MSD) binding on whole cells expressing cynomolgus BSG2
Description: as §1
(§2) BSG2 antibody binding activities against whole cells expressing human or cynomolgus monkey BSG2 were assessed by ECL using MSD technology (described in Example 1.3) and the receptor binding assay (described in Example 1.4) and are shown in Table 11.

[7] = target: T1, human BSG2 (basigin isoform 2) on the …; test: receptor binding assay, Eu-labeled antibody on cells expressing human BSG2
Description: (§3) Cell lines expressing BSG2 were harvested and washed once in assay buffer (PBS, 0.1% BSA, 0.02% Na Azide, 10 mM EDTA) and resuspended to 5×10⁶ cells per mL. Serial 1:2 dilutions of ⁺³Eu-labeled anti-BSG2 antibody stock in assay buffer were made for final concentrations ranging from 1.6×10⁻⁸-7.7×10⁻¹² M, and a 4 mg/mL solution of unlabeled anti-BSG2 antibody was also prepared. To 96 well round bottom plates, 25 μl of ⁺³Eu-labeled antibody dilutions were added to 25 μl buffer (total counts), or 25 μl of unlabeled antibody were added to 25 μl buffer (background counts). 50 μl of cells at 2.5×10⁵ cells per well were then added to all samples, mixed gently, and incubated on ice for 1 hour. Cell bound antibody was then separated from unbound antibody by transferring 20 μL of the reaction mixture to Acrowell 96 well filter plates (Pall PN 5020), centrifuged for 5 min (2200 rpm), washed 3× with 150 μL cold assay buffer, and centrifuged for 5 min. Signal was determined by incubating samples with 150 μL/well of enhancement buffer and read using Envision. The specific counts were determined by subtracting the background counts (cells+labeled antibody+excess cold antibody) from the corresponding total counts (cells+labeled antibody) for each antibody concentration. The labeled antibody concentration versus total counts was analyzed using Graphpad Prism 4 to calculate Kd and Bmax values.
as §2

[8] = target: T2, cynomolgus monkey BSG2 on the cell …; test: receptor binding assay, Eu-labeled antibody on cells expressing cynomolgus BSG2
Description: as §3, with “Cell bound antibody was then separated from unbound antibody by transferring 20 μL of the reaction mixture to Acrowell 96 well filter plates (Pall PN 5020), centrifuged for 5 min (2200 rpm), washed 3× with 150 μL cold assay buffer, and centrifuged for 5 min.” left out
as §2

- Mitochondrial membrane potential, fold decrease against Neg control IgG2a, MiaPaCa cells [2]: 2.5 fold decrease
- ph-Akt, fold decrease against Neg control IgG2a, MiaPaCa cells [2]: 2 fold decrease
- EC50 [3]: 0.6 nM
- EC50 [4]: 0.35 nM
- EC50 [5]: 0.6 nM
- EC50 [6]: 7.6 nM
- Kd [7]: 2 nM
- Kd [8]: 3.6 nM
B1: mouse anti-human BSG2 monoclonal antibody ML64-6A11-3A3 (antibody, mouse IgG2a, V domains shown)
VH: EVKLEESGGGLVQPGGSMKLSCVASGFTFSNFWMDWVRQSPEKGLEWIAGIRLKSYNYATHYAESVKGRFTISRDDSKSSVYLQMNNLRAEDTGIYYCTDWDGAYWGQGTLVTVSA
VL: DIVMTQSHKFMSTSVGDRVSITCKASQDVSTDVAWYQQKPGQSPKLLIYSASYRYTGVPDRFTGSGSGTDFTFTISSVQAEDLAVYYCQQHYSTPFTFGSGTKLEIK
notes: Hybridoma antibody, mouse IgG2a/kappa; also called 6A11-3A3 parental mouse antibody; Ab 3A3
- CDC assay (% killing at 10 µg/ml Ab), MiaPaCa-2 pancreatic cancer cells [1]: 84 % killing
